Experimental data published in patent publication US8557777B2, “Methods for treating cancer using prostate specific antigen and tumor endothelial marker peptides” (The Board of Trustees of the University of Illinois, priority 2010, dated 2013).
Ends that are not written are not given here.

Key:
patients with CaP [1] = assay: Toxicity graded by NIH Common Terminology Criteria for Adverse Events v3.0
patients with CaP [2] = details: in vivo
HLA-A2 = HLA-A2 (Homo sapiens, UniProt P04439, D140Y/D185E/D98H/E176V/E277Q/G131W/G231S/I119V/I121R/I166T/I218V/L300P/L318F/N151K/N90K/P208A/P217A/Q86G/Q94H/R138H/R169H/T345S); assay: T2 binding assay: stabilization of HLA-A2 expression by TEM8 peptides; details: for expression of HLA-A2 on T2 cells over baseline levels: baseline T2 + DMSO, TEM8 207-215 10 ug/ml, TEM8 298-306 40 ug/ml (FIG. 9)
HLA-A201 = target: T1, HLA-A201 (Homo sapiens, UniProt P04439, D140Y/D185E/D98H/E176V/E277Q/G131W/G231S/I119V/I121R/I166T/I218V/L300P/L318F/N151K/N90K/P208A/P217A/Q86G/Q94H/R138H/R169H/T345S); assay: Peptide-binding assay on T2 cells (PSA peptide)
T1 construct: stabilize the expression of HLA-A2 on antigen-processing defective T2 cell line; host or cells: T2 cells
Procedure: The antigen-processing defective cell line, T2, was used to assay peptide binding to HLA-A201 as previously detailed [Xue et al., Prostate 30(2): 73-8 (1997)]. Briefly, T2 cells (5×10^5/well) were pulsed with PSA-peptide or DMSO at the designated concentration and cultured in 24-well plates overnight (18 hours) at 37° C. in 5% CO2 atmosphere. HLA-A2 expression was measured by flow cytometry using FITC conjugated anti HLA-A2 antibody (clone BB7.2) from BD Biosciences (San Diego, Calif.).

[3] = format: physicochemical
Procedure: Identified candidate peptides were synthesized (Protein Laboratory, Research Resources Facility, University of Illinois, Chicago) at greater than 95% purity, dissolved in dimethylsulphoxide (DMSO) at a concentration of 5 mg/ml and stored at −20° C. Peptides were tested for their ability to stabilize the expression of HLA-A2 on antigen-processing defective T2 cell line (ATCC, Manassas, Va.) as previously described [Xue et al., Prostate 1997; 30:73-78]. Briefly, 5×10^5 T2 cells in RPMI 1640 medium containing 10% fetal bovine serum (BioWhitaker, Walkersville, Md.) were incubated with varying amounts (1 to 80 ug/ml) of TEM8 peptide or control HIV-RT476-484 peptide, and cultured in 24 well plates for 18 hours at 37° C. HLA-A2 expression was visualized by direct staining with FITC conjugated MA2.1 antibody or an isotype control (BD Biosciences, San Diego, Calif.) followed by analysis on a FC500 flow cytometer (Beckman Coulter, Miami, Fla.).
TEM8 is known to share 60% sequence homology within the extracellular integrin-like-I domain region with another protein called capillary morphogenesis protein 2 (CMG2) that is widely expressed in normal tissues [Chen et al., J Biol. Chem. 2007 Mar. 30; 282(13):9834-45. Epub 2007 Jan 24]. […] Three remaining peptides were tested in T2 binding assays. […]

| Compound | T2 binding (HLA-A2) | expression of HLA-A2 on T2 cells over baseline levels (HLA-A2) | other results |
| --- | --- | --- | --- |
| CC(C)C[C@H](NC(=O)[C@H](CC(=O)O)NC(=O)[C@@H](NC(=O)[C@H](CS)NC(=O)[C@H](CCC(N)=O)NC(=O)[C@H](CC(C)C)NC(=O)[C@@H](N)CCCCN)C(C)C)C(=O)N[C@@H](Cc1c[nH]cn1)C(=O)N[C@H](C(=O)O)C(C)C [PSA146-154 peptide] | – | – | late safety (patients with CaP [1]; after six to eight years of monitoring): no late safety concerns or deleterious sequelae; reactions at the site of injection (patients with CaP [1]; all patients under protocol-1 (intradermal peptide + GM-CSF)): Mild pain, itching, and erythema with or without induration; treatment related grade 3/4 toxicities (patients with CaP [2]): no treatment related grade 3/4 toxicities |
| ALQGIIHSI [TEM8 207-215, 9-mer HLA-A0201 peptide of Tumor Endothelial Marker-8] | Yes | showed enhanced expression of HLA-A2 over baseline levels | binding affinity in comparison to HIV-RT 476-484 (HLA-A2; control HLA-0201 binding peptide): greater binding affinity |
| CALPERPSLYTKVVHYRKWIK [PSA210-230 peptide, long chain synthetic peptide corresponding to PSA residues 210-230] | – | – | HLA-A201 binding capacity (HLA-A201): binds with high affinity in a concentration dependent fashion |
| FLLLALALL [TEM8 331-339] | – | – | solubility in DMSO [3]: insoluble in DMSO |

Now from value to compound, other results behind:

| T2 binding (HLA-A2) | Compound | expression of HLA-A2 on T2 cells over baseline levels (HLA-A2) | other results |
| --- | --- | --- | --- |
| Yes | SMNDGLSFI [TEM8 298-306, 9-mer HLA-A0201 peptide of Tumor Endothelial Marker-8] | showed enhanced expression of HLA-A2 over baseline levels | – |
| No | TLNEKPFSV [TEM8 266-274, 9-mer HLA-A0201 peptide of Tumor Endothelial Marker-8] | did not | – |
